Article PMC7064540

Key:
[1] = confocal GFP imaging with ER-Tracker; conditions: glycan lost; control: wild type Gpr176-GFP
[2] = immunoblot densitometry, Dox-induced Flp-In TREx293; conditions: glycan lost; for expression_or_secretion, percent_of_wt: control: wild type; for expression_or_secretion: control: wild type hGPR176
[3] = immunoblot after MG132 or bafilomycin A1, 6 h; conditions: glycan lost; control: wild type Gpr176-GFP
[4] = immunoblot of PNGase F-treated live cells; conditions: glycan lost; control: cells without PNGase F

B1: Gpr176: N-ter mut (protein)
parent chain: MGHNSSWVSPNTSHPRNTSGAEAGANLSAFGELSEAQLYRQFTTTVQVVIFIGSLLGNFMVLWSTCRTTVFKSVTNRFIKNLACSGICASVVCVPFDIILSSSPHCCWWIYTMLFCKVLKFLHKVFCSVTVLSFPAIALDRYYSVLYPLERKISDAKSRELVMYIWAHAVVASVPVFAVTNVADIYAMSTCTEVWSNSLGHLVYVLIYNVTTVIVPVAVVFLFLILIRRALSASQKKKVIIAALRTPQNTISIPYASQREAELHATLLSMVTVFILCSVPYATLVVYQTVLNVPNTSVFLLLTAIWLPKVSLLANPVLFLTVNKSVRKCLVGTLVQLHHRYSRRNVVSTGSGVAEPSLEPSMRSGSQLLEMFHIGQQQIFKPSEDEEESEAKYLGSADFQAKEVLTSCPEGEQEPPQLAPSVPPPGTVDSEPRVSPVAPMESGIFPDKYSLQFGFGPFELPPQWLSETRNSKKRLLPPLGNTPEELIQTKVPRVNRVERKMSRNNKVSIFPKVDS
localisation_or_trafficking [1]: changes | expression_or_secretion, percent_of_wt [2]: decreases | degradation_or_half_life [3]: decreases

B2: Gpr176: N-ter/ECL3 (protein)
parent chain: B1 parent chain
expression_or_secretion, percent_of_wt [2]: decreases

B3: Gpr176: PNGase F (protein)
parent chain: B1 parent chain
expression_or_secretion [4]: no change

B4: hGPR176: N-ter mut (N4Q;N11Q;N17Q;N27Q) (protein)
parent chain: MGHNGSWISPNASEPHNASGAEAAGVNRSALGEFGEAQLYRQFTTTVQVVIFIGSLLGNFMVLWSTCRTTVFKSVTNRFIKNLACSGICASLVCVPFDIILSTSPHCCWWIYTMLFCKVVKFLHKVFCSVTILSFPAIALDRYYSVLYPLERKISDAKSRELVMYIWAHAVVASVPVFAVTNVADIYATSTCTEVWSNSLGHLVYVLVYNITTVIVPVVVVFLFLILIRRALSASQKKKVIIAALRTPQNTISIPYASQREAELHATLLSMVMVFILCSVPYATLVVYQTVLNVPDTSVFLLLTAVWLPKVSLLANPVLFLTVNKSVRKCLIGTLVQLHHRYSRRNVVSTGSGMAEASLEPSIRSGSQLLEMFHIGQQQIFKPTEDEEESEAKYIGSADFQAKEIFSTCLEGEQGPQFAPSAPPLSTVDSVSQVAPAAPVEPETFPDKYSLQFGFGPFELPPQWLSETRNSKKRLLPPLGNTPEELIQTKVPKVGRVERKMSRNNKVSIFPKVDS
expression_or_secretion [2]: decreases

B5: hGPR176: N17K (protein)
parent chain: B4 parent chain
expression_or_secretion [2]: no change

B6: hGPR176: N4D (protein)
parent chain: B4 parent chain
expression_or_secretion [2]: no change

B7: hGPR176: N17T (protein)
parent chain: B4 parent chain
expression_or_secretion [2]: no change

B8: hGPR176: S13G (protein)
parent chain: B4 parent chain
expression_or_secretion [2]: decreases

B9: hGPR176: N4S (protein)
parent chain: B4 parent chain
expression_or_secretion [2]: decreases
